These results are taken from patent US20220409751A1 (NORTHSTAR MEDICAL TECHNOLOGIES, published 2022).

What is called Kd is the constant that tells how readily two partners part at equilibrium. Higher therefore signals lower affinity.

Numbering of substitutions follows the chain as printed.

Experiment [1] has as its target urokinase plasminogen activator receptor (uPAR) (UniProt Q03405). As to the kind of experiment: direct binding assay.
For experiment [2], the target named is T1, soluble uPAR (suPAR) (UniProt Q03405 23-305, limits assumed).
T1 construct: Analyte in the Biacore capture assay
T1 sequence (Q03405 23-305 limits assumed): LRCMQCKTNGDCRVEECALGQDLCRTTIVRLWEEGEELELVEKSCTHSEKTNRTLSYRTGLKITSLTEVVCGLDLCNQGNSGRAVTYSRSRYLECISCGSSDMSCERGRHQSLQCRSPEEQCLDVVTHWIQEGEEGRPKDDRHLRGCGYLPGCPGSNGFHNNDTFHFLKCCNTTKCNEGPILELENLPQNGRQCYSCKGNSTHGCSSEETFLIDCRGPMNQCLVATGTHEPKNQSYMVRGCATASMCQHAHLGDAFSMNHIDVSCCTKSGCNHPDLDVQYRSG
As to the kind of experiment: SPR (Biacore 2000), antibody captured on protein A/G surface, suPAR as analyte, 25 C, 1:1 Langmuir fit. The method, then: The HE™ variants were diluted to 1 μg/mL and injected over a protein A/G surface. Antibody injections were optimized to produce antibody densities of 100-200 RU.
Six serial 3-fold dilutions of soluble uPAR (suPAR) were prepared in running buffer (PBS), and each dilution was injected in triplicate in random order at 25° C. Buffer injections were evenly distributed throughout the run. The sample injections were double-referenced against the blank flow cells and buffer injections to correct for any bulk shift or non-specific binding. Data were analyzed with BiaEvaluation software from Biacore®. Sensorgrams were fit utilizing a 1:1 Langmuir model.

urokinase plasminogen activator receptor (uPAR), sequence (Q03405 23-305 limits assumed): as above

Molecule mouse monoclonal antibody ATN-658 came in with a Kd in experiment [1] of 1 nM.

B1: HE ™ ATN-1 (antibody, IgG1, V domains shown)
VH: EVQLVQSGPEVVKTGASVKISCKASGYSFTSYYMHWVKQAHGQGLEWIGEINPYNGGASYNQKIKGRATFTVDTSTRTAYMEFSSLRSEDTAVYYCARSIYGHSVLDYWGQGTLVTVSS
VL: DVVMTQSPLSLSVTIGEPASISCRSSQSLLDSDGKTYLNWLLQKPGQSPKRLIYLVSKRDSGVPDRFSGSGSGTDFTLKISRVEAEDVGVYYCWQGTHFPLTFGQGTKLEIK
notes: V regions cloned into transient expression vectors with human gamma-1 and kappa constant region modules (IgG1, kappa); made in HEK293E cells
As to B1, in experiment [2], the affinity, expressed as Kd, was 0.28 nM.

B2: HE ™ ATN-4 (renamed MNPR-101) (antibody, human IgG1, kappa, V domains shown)
VH: B1 VH with V12K, K38R, K65Q, R77S
VL: DVVMTQSPLSLSVTIGEPASISCRSSQSLLDSDGKTYLNWLLQKPGQSPQRLIYLVSKRDSGVPDRFSGSGSGTDFTLKISRVEAEDVGVYYCWQGTHFPLTFGQGTKLEIKR
notes: IgG1 kappa; In the Biacore assay the transiently expressed (HEK293E), unconjugated antibody was used; also called mAb MNPR-101; humanized mAb MNPR-101
Consider B2, for which the affinity in experiment [2], expressed as Kd, was 0.39 nM.

B3: HE ™ ATN-2 (antibody, IgG1, V domains shown)
VH: B1 VH
VL: B1 VL with K50Q
notes: Human gamma-1 and kappa constant region modules (IgG1, kappa); made in HEK293E cells
Take B3: in experiment [2], the affinity, expressed as Kd, was 0.38 nM.

B4: HE ™ ATN-3 (antibody, IgG1, V domains shown)
VH: B1 VH with V12K, K38R, K65Q, R77S
VL: B1 VL
notes: as for B3
Turning to B4, binding in experiment [2] was put at a Kd of 0.28 nM.
